# Reference: the supplement of paper PMC9170038
# System: MS2 coat protein
# Test: apparent KD of MS2 coat protein; higher = weaker reporter binding
# Settings: Eterna round: R107; input ligand: theophylline 2 mM
# How it was run: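 On-chip transcription from Illumina sequencing clusters produced the designed RNA switches. These were titrated with SNAP-549-labelled MS2 coat protein (twofold steps, 0.7 or 1.5 nM to 3 µM) in 100 mM Tris-HCl pH 7.5, 80 mM KCl, 4 mM MgCl2, with or without constant ligand. The apparent KD given is the per-design median of normalised cluster binding-curve fits.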
row,Sequence,apparent KD of MS2 coat protein [µM]
1,AUCGGCCAGGGAAGGAGCGUGAAGACAUGAGGAUCACCCAUGUAGAGGCGCCGAAGGCGUUCGCAGGUAGGUCGCCCUGGCUGAU [#1 Same State - Arginine B Attempt #27 (HarryS)],0.0177
2,AUUAACAUGAGGAUCACCCAUGUUUGUCUCCGAGGACCGGUACGGCCGCCACUCGCAGGUUGGAGUCGCUAUAUGGGCGUUCACU [theeternabot_sameState_MS2_Trp_A_42],0.0649
3,GGGUGCGGGCGAAGGAGCGUGAAGACAUGAGGAUCACCCAUGUAGAGGCCCGAACAGGGUUCGCAGGUAGGUCGCGCGCGUGCCC [#1 Same State - Arginine B Attempt #5 (HarryS)],0.0186
4,UCCUGCAGAGCGGCCGCCACUGUAUUGCGUGAGGAUGACCCAACAUGAGGAUCACCCAUGUUGUUUAGGACCGGGCUUGCCACCA [lkpmullin],0.0181
5,CUUGACAUGAGGAUCACCCAUGUUGGUAAACGAGGACCGGUACGGCCGCCACUCGGUUACGUGUAGUACCGGUAAGAUCCAGGGU [Default title],0.039
6,GGACUAACCAGAAGGAGCGACACGCAGAAACUGCAAAAUCCUCCACACGAGGAUCACCCGUGUCAGGUAGGUCGCUGGUUAGUCG [ArgXB 16 #Zipper #MS2Left #StaticStem #Blueprint],0.0861
7,AAAGGAAGGUAAAAUAAAACUACAUGUGAAGGAGCGCGCGAAAGCGCAGGUAGGUCGCACAUGAGGAUCACCCAUGUCCUUCCAA [MAT - Exclusion Arginine A - Mod of Eli - D4],0.129
8,UGUAUGUGAUCUGAUACCAGAGUUGAUAACCUGAGGAUCACCCUGGUAAAGGCGAAAGCCCUCCCUUGGCAGCAGAUCGCAUACU,0.0346
9,GUAAAUUAUAGAAGGAGCGUCGAAAAUGGGUAAACAUGAGGAUCACCCAUGUAAAGGGAACGACAGGUAGGUCGCUAUAAUUUAC [AstromonsSSArgB#15],0.259

# Same assay, conditions: Eterna round: R107; input ligand: tryptophan 2.4 mM
row,Sequence,apparent KD of MS2 coat protein [µM]
1,AACGUAUACAGAAGGAGCGUGAAUUAUAUUACUCAUUGUUAUACAUGAGGAUCACCCAUGUCACAGGUAGGUCGCUGUAUUCGUA [JR_ExcArginiB_Sub018],0.11
2,UCUUUCUAUAGUGAUACCAGACGUACAUGAGGAUCACCCAUGUUACAUUCUUGGUUAAAAGUCCCUUGGCAGCACGAUUUGUUCG [JR_Nu_ExcTheophyB_Sub027],0.0103
3,ACAUUUAACUGAAGGAGCGUGAUUUCUACAACAUGAGGAUCACCCAUGUUCAUUACUCAUUCACAGGUAGGUCGCAGACUAAUGA [JR_SSArginiB_Sub031],0.021
4,AUUAAGAAUAUGUAGACGGCGGAGAAGAGACGAGGACCGGUACGGCCGCCACUCGUGUUAGUUAACAUGAGGAUCACCCAUGUUA [#08 Tryptophan A Same State],0.0118
5,AGAGUUAGACAAAAGUCUAGCUCACCAGAAGGAGCGUCCGAAAGGACAGGUAGGUCGCUGGUACACGAGGAUCACCCGUGUUCCU [ArgAS 16 #OpenEnded #AlternativeMS2],0.0368
6,GGAUAGGACAGAAGGAGCGACAUGAGGAUCACCCAUGUGGAUCAACGACGAAAGUCGCCAUGUCAGGUAGGUCGCUGUCCUAUCG [ArgXB 8 #MS2Gate #StaticStem #MS2LeftOffAptamer],0.918
7,AGCCCGUGAGCGGCCGCCACUGGAGGCUUUGCGCGACAUGAGGAUCACCCAUGUGUGCCCGGCGUUAGGACCGGGCUCACGUGGU [#1 Same State - Tryptophan B Attempt #20 (HarryS)],0.11
8,CCCAAAUAGAUCUUUGGAAUUUUACUCGAAGGAGCGUCAUAGUAGGCAGGUAGGUCGCGAGACAUGAGGAUCACCCAUGUAGAGA [kinmullin],0.0324
9,AUGCAUAGCGGAAGGAGCGCAAUAGAAUGACAUGAGGAUCACCCAUGUGUGUGAUGUGGGUUGCAGGUAGGUCGCCGAGUGGUAU [Exclusion - Arginine B (Freestyle 2)],0.0905
10,UCAUGAGUUUCGGAUACCAGUGAUGUCGAUACAUGAGGAUCACCCAUGUUAGAGGAUGUACACCCUUGGCAGCCGGGUGUGGCGG [ooimullin],0.113
11,UAUAUAUAAAUUGAUACCAGCGAGAAAACAUGAGGAUCACCCAUGUUCGCCCAUGUUAAGCGCCCUUGGCAGCAAUAUUAUUAUU [AstrosExyTheB#3],0.0338
12,AUUUGUACUUAGUGUUGAGUUCUGUCGGAAGGAGCGGAAUAUAAUCCAGGUAGGUCGCCGACAGACAUGAGGAUCACCCAUGUAA [#09 Exclusion - Arginine A],0.0323
13,ACAUGAGGAUCACCCAUGUAUUACCGGGAAGGAGCGCGUAAGGACGCAGGUAGGUCGCUCGGCGUCGUGCUGGAAAGCACGACGA [#1 Same State - Arginine A Attempt #23 (HarryS)],0.0151
14,CGCACAUGAGGAUCACCCAUGUGAGGGUACCGAGGACCGGUACGGCCGCCACUCGCAGGACAUGAGGAUCACCCAUGUGCCGCCG [SSTA DOUBLE!!! :-D #6],0.031
15,AGGACUUGCGUUCAAAAUCCCAUGUUGGAAGGAGCGCAUAUAGUUGCAGGUAGGUCGCCGACAUGAGGAUCACCCAUGUCUUUUC [Zasorequer],0.0352
16,GGUUUCGCGGGCGAUACCAGCUUGAUCGUACUGGCCUGGUACAUGAGGAUCACCCAUGUAAGCCCUUGGCAGCGCGCGCGAGACC [#1 Exclusion - Theophylline B Attempt #4 (HarryS)],0.0117
17,AUCGGCCAGGGAAGGAGCGUGAAGACAUGAGGAUCACCCAUGUAGAGGCGCCGAAGGCGUUCGCAGGUAGGUCGCCCUGGCUGAU [#1 Same State - Arginine B Attempt #27 (HarryS)],0.0158
18,GAGCUGAUGUAGAAAUUUUAUUUAUGAGAUACCAGUACAGAAAUGUACCCUUGGCAGCUCAAUUUUACAUGAGGAUCACCCAUGU [Ex Theophylline A 13],0.0115
19,AUUAAUAGUUGUGAUACCAGACUUACAUGAGGAUCACCCAUGUUACUUAAGUGUUUUGAUGUCCCUUGGCAGCACUGUUUAGUUA [JR_SSTheophyB_Sub016],0.025
20,GGGUGCGGGCGAAGGAGCGUGAAGACAUGAGGAUCACCCAUGUAGAGGCCCGAACAGGGUUCGCAGGUAGGUCGCGCGCGUGCCC [#1 Same State - Arginine B Attempt #5 (HarryS)],0.0163
21,CGAACAAAACUAAAUAAACAACUGGGUGAUACCAGUACAUGUGCGUACCCUUGGCAGCAUCCGGCCACAUGAGGAUCACCCAUGU [Ridiansoer],0.0409
22,UCCUGCAGAGCGGCCGCCACUGUAUUGCGUGAGGAUGACCCAACAUGAGGAUCACCCAUGUUGUUUAGGACCGGGCUUGCCACCA [lkpmullin],0.0182
23,GGGAAUGAACGUGAUACCAGAGAUCCGGUCUCCGUCACUCUACAUGAGGAUCACCCAUGUCUCCCUUGGCAGCACCGUCAUCGGG [Exclusion Theophylline B GF 29],0.029
24,ACAUGAGGAUCACCCAUGUUCCUCGCCGAUACCAGUGAAGAAGAACGCCCUUGGCAGCGGAAAGAAUAUAUUGGAGAUGAUAUAU [6.U],0.225
25,AUUUACAUGGUCAUAUAUAUAUCGUCAGAUACCAGACUAGAUAUAGUCCCUUGGCAGCUGUUACAUGAGGAUCACCCAUGUUAUA [JR_Nu_ExcTheophyA_Sub019],0.109
26,GGACUAACCAGAAGGAGCGACACGCAGAAACUGCAAAAUCCUCCACACGAGGAUCACCCGUGUCAGGUAGGUCGCUGGUUAGUCG [ArgXB 16 #Zipper #MS2Left #StaticStem #Blueprint],0.0538
27,AAAGGAAGGUAAAAUAAAACUACAUGUGAAGGAGCGCGCGAAAGCGCAGGUAGGUCGCACAUGAGGAUCACCCAUGUCCUUCCAA [MAT - Exclusion Arginine A - Mod of Eli - D4],0.0968
28,UGUAUGUGAUCUGAUACCAGAGUUGAUAACCUGAGGAUCACCCUGGUAAAGGCGAAAGCCCUCCCUUGGCAGCAGAUCGCAUACU,0.239
29,GUAAAUUAUAGAAGGAGCGUCGAAAAUGGGUAAACAUGAGGAUCACCCAUGUAAAGGGAACGACAGGUAGGUCGCUAUAAUUUAC [AstromonsSSArgB#15],0.167
